Measured values reported in article PMC8080067, “Tight binding of cytochrome b5 to cytochrome P450 17A1 is a critical feature of stimulation of C21 steroid lyase activity and androgen synthesis” (The Journal of Biological Chemistry, 2021).
Numbering of substitutions follows the chain as printed.

Columns and labels:
[1] = molecular target: T1, P450 17A1 R347H variant (Homo sapiens, UniProt P05093, R347H)
T1 sequence (P05093 1-508 R347H): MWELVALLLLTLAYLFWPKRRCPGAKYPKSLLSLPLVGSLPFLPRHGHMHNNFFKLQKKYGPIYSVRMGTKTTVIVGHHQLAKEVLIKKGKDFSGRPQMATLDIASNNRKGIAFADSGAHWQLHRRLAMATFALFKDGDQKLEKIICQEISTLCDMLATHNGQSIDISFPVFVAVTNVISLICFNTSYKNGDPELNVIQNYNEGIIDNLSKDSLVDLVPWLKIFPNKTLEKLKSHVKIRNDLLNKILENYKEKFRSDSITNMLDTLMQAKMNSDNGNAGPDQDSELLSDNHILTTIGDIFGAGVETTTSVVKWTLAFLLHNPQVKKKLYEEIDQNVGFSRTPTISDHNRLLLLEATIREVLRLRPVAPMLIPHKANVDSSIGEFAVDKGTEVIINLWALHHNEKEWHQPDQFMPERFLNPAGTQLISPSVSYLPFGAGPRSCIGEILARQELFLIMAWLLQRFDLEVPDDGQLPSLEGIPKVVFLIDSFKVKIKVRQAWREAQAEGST
Protocol: (§1) P450 catalytic activity assays to measure steroid hydroxylation and lyase reactions were carried out as described previously ([23], [37], [64]).
(§2) The reactions were initiated by adding an NADPH-regenerating system (final concentrations of 15 mM glucose 6-phosphate, 1.5 mM NADP^+, and 1 IU ml^−1 glucose 6-phosphate dehydrogenase) ([75]) and terminated by quenching and extracting with 2.0 ml CH2Cl2. Aliquots of the organic phases were dried and then dissolved in 100 μl of a CH3CN/H2O (1:1, v/v) mixture. […] The extraction procedure was then repeated, and the (Δ^4) reaction products were analyzed in a Waters Acquity UPLC system using a BEH C18 octadecylsilane column (2.1 mm × 100 mm, 1.7 μm). The reaction products were resolved using a mobile phase composed of solvents A (70% CH3OH, 30% H2O, v/v) and B (CH3CN), at a flow rate of 0.2 ml min^−1. The mobile phase linear gradient proceeded as follows: 0 to 1 min, 5% B; 4 min, 30% B; 4.5 min, 40% B; 4.55 to 6.75 min, 95% BA; and 7 to 10 min, 5% B. The reaction products were identified by coelution with commercial standards and quantified by the A243 peak areas. Steady-state kinetic parameters were estimated using nonlinear regression of hyperbolic fits in GraphPad Prism software, with equations used for kcat and the specificity constant kcat/Km ([76]): Y = (ksp ∗ X)/(1 + (ksp ∗ X/kcat)) and then deriving Km by division.

[2] = molecular target: T2, P450 17A1 R358Q variant (Homo sapiens, UniProt P05093, R358Q)
T2 sequence (P05093 1-508 R358Q): T1 sequence (P05093 1-508 R347H) with H347R, R358Q
Protocol: as §1, §2

[3] = system: P450 17A1; parameters: method as in PMID 30468857; conditions: SPR; cited from earlier work
[4] = molecular target: T3, WT P450 17A1 (Homo sapiens, UniProt P05093); assay type: biochemical; parameters: made in house; host or cells: Escherichia coli (P450 17A1 in JM109)
T3 sequence (P05093 1-508): T1 sequence (P05093 1-508 R347H) with H347R
Protocol: Figure S4. Stimulation of lyase activities by b5, T70C- b5, and NanoTemper Blue-T70C-b5. Catalytic assays for the lyase reactions were performed and analyzed as described in the main text.

B1: b5: recombinant human cytochrome b5, unlabeled (protein)
chain: MAEQSDEAVKYYTLEEIQKHNHSKSTWLILHHKVYDLTKFLEEHPGGEEVLREQAGGDATENFEDVGHSTDAREMSKTFIIGELHPDDRPKLNKPPETLITTIDSSSS
[1]
  stimulation of lyase reactions: did not display b5 concentration-dependent stimulation
[2]
  stimulation of lyase reactions: did not display b5 concentration-dependent stimulation
[3]
  on-rate constants: 360 to 5000 M⁻¹ s⁻¹
[4]
  stimulation of lyase activities: stimulated by b5 in a concentration-dependent manner
